# Laboratory results reported in patent US20090093061.
# Test system: GroEL having Aspartate 490 substituted with Cysteine, biotinylated and conjugated onto NeutrAvidin beads
substance,measurement,value
mitochondrial malate dehydrogenase,"refolding of denatured mMDH (conversion of NADH to NAD+ in the presence of oxaloacetate, OD at 340 nm)",positive GroEL-490 activity was confirmed by a reduction in OD at 340 nm with respect to the control
